# T1: ActRIIB-Fc homodimer (human, UniProt Q13705 19-137)
# T1 construct: extracellular domain; also called unmodified ActRIIB-Fc homodimer; ActRIIB-Fc:ActRIIB-Fc homodimer
# T1 sequence (looked up): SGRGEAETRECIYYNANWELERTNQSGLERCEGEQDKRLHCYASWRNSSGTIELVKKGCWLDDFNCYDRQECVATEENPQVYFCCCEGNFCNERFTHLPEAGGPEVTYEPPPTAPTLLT
# B1: activin B (ligand, UniProt P09529 293-407, looked up)
# chain: GLECDGRTNLCCRQQFFIDFRLIGWNDWIIAPTGYYGNYCEGSCPAYLAGVPGSASSFHTAVVNQYRMRGLNPGTVNSCCIPTKLSTMSMLYFDDEYNIVKRDVPNMIVEECGCA
# Assays:
# ActRIIB-Fc homodimer [1] = target: T1, ActRIIB-Fc homodimer; experiment: SPR (Biacore), 37 C, anti-Fc capture, ligand in flow
# Protocol: A Biacore™-based binding assay was used to compare the ligand binding kinetics of an ActRIIB-Fc:ActRIIB(L79E)-Fc heterodimer with those of unmodified ActRIIB-Fc homodimer. Fusion proteins were captured onto the system using an anti-Fc antibody. Ligands were then injected and allowed to flow over the captured receptor protein at 37° C. Results are summarized in the table below, in which ligand off-rates (kd) most indicative of effective ligand traps are denoted in bold.
# ActRIIB-Fc homodimer [2] = target: T1, ActRIIB-Fc homodimer; experiment: SPR (Biacore), anti-Fc capture, ligand in flow
# Protocol: (§1) A Biacore™-based binding assay was used to compare ligand binding selectivity of the ActRIIB-Fc:ALK7-Fc heterodimeric complex described above with that of ActRIIB-Fc and ALK7-Fc homodimeric complexes. The ActRIIB-Fc:ALK7-Fc heterodimer, ActRIIB-Fc homodimer, and ALK7-Fc homodimer were independently captured onto the system using an anti-Fc antibody. Ligands were injected and allowed to flow over the captured receptor protein. Results are summarized in the table below, in which ligand off-rates (kd) most indicative of effective ligand traps are denoted by bold font.
# ActRIIA-mFc = target: T2, ActRIIA-mFc (human, UniProt P27037 20-135); experiment: similar Biacore binding assay
# T2 construct: extracellular domain; not shown: minimal linker, not specified for the mouse construct
# T2 sequence (P27037 20-135): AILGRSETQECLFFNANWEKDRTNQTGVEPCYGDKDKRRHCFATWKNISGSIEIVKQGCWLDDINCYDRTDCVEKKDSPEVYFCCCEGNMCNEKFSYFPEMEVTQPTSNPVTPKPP
# Protocol: GDF11 or activin A were immobilized on a Biacore™ CMS chip using standard amine-coupling procedure. ActRIIA-hFc and ActRIIA-mFc proteins were loaded onto the system, and binding was measured. […] See FIG. 15A-B. Using a similar binding assay, ActRIIA-hFc was determined to have high to moderate affinity for other TGF-beta superfamily ligands including, for example, activin B, GDF8, BMP6, and BMP10. ActRIIA-mFc behaved similarly.
# ActRIIB-Fc homodimer [3] = target: T1, ActRIIB-Fc homodimer; experiment: SPR (Biacore), anti-Fc capture, ligand in flow; remark: listed apart in the source
# Protocol: as §1, with “ActRIIB-Fc:ALK4-Fc” for “ActRIIB-Fc:ALK7-Fc”, “ALK4-Fc homodimer” for “ALK7-Fc homodimeric”, “ALK4-Fc” for “ALK7-Fc”
binder,measurement,setting,value
B1,Kd,ActRIIB-Fc homodimer [1],8 pM
same,koff,ActRIIB-Fc homodimer [1],6.6e-05 s⁻¹
same,kon,ActRIIB-Fc homodimer [1],8.1e+06 M⁻¹ s⁻¹
same,Kd,ActRIIB-Fc homodimer [2],8 pM
same,koff,ActRIIB-Fc homodimer [2],0.00016 s⁻¹
same,kon,ActRIIB-Fc homodimer [2],1.5e+07 M⁻¹ s⁻¹
same,binding result,ActRIIA-mFc,binds
same,Kd,ActRIIB-Fc homodimer [3],0.02 nM
same,koff,ActRIIB-Fc homodimer [3],0.0001 s⁻¹
same,kon,ActRIIB-Fc homodimer [3],5.1e+06 M⁻¹ s⁻¹

# Reference: patent publication US20250064952A1 (ACCELERON PHARMA, published 2025)
